Measurements: US20180346565A1 (AbbVie / Abbott, published 2018)

Target: T1, DLL3 purified protein (human, UniProt Q9NYJ7 27-492, limits assumed)
T1 construct: also called purified DLL3; immobilized human DLL3
T1 sequence (looked up): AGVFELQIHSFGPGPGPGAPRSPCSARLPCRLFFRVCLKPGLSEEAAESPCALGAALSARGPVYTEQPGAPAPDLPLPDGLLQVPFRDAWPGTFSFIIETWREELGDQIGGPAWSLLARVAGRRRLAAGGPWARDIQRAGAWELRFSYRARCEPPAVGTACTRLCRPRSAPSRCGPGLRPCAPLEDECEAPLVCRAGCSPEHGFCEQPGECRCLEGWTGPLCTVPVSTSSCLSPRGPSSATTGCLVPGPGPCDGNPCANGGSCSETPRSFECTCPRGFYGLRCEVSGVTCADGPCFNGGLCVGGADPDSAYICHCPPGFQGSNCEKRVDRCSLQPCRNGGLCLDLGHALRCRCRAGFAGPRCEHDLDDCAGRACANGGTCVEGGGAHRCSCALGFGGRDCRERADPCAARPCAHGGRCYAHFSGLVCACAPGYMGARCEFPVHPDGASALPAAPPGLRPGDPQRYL
Test: ELISA, plate coated with 1 ug/ml purified DLL3, serially diluted antibody, detection with HRP-conjugated anti-human IgG1 reporter mAb, TMB, OD450
Excerpt: Site-specific anti-DLL3 antibodies fabricated as set forth in the previous Examples were screened by an ELISA assay to determine whether they bound to DLL3 purified protein. The parental native antibody was used as a control and run alongside the site-specific anti-DLL3 antibody. Binding of the antibodies to DLL3 was detected with a monoclonal antibody (mAb) reporter antibody conjugated to horseradish peroxidase (HRP), (Southern Biotech, Cat. No. SB9052-05), which binds to an epitope present on human IgG1 molecules. HRP reacts with its substrate tetramethyl benzidine (TMB). The amount of […] TMB is directly proportional to the amount of test antibody bound to DLL3.
ELISA plates were coated with 1 μg/ml purified DLL3 in PBS and incubated overnight at 4° C. Excess protein was removed by washing and the wells were blocked with 2% (w/v) BSA in PBS with 0.05% tween 20 (PBST), 200 μL/well for 1 hour at room temperature. After washing, 100 μL/well serially diluted antibody or ADC were added in PBST for 1 hour at room temperature. The plates were washed again and 0.5 ug/ml of 100 μL/well of the appropriate reporter antibody was added in PBST for 1 hour at room temperature. […] The samples were then analyzed by spectrophotometer at OD 450.

EC50 (read off the curve): ~10 ng/mL
B1: hSC16.56 (antibody, human IgG1, kappa, V domains shown)
VH: QVQLVQSGAEVKKPGASVKVSCKASGYTFTNYGMNWVRQAPGQGLEWMGWINTYTGEPTYADDFKGRVTMTTDTSTSTAYMELRSLRSDDTAVYYCARIGDSSPSDYWGQGTLVTVSS
VL: EIVMTQSPATLSVSPGERATLSCKASQSVSNDVVWYQQKPGQAPRLLIYYASNRYTGIPARFSGSGSGTEFTLTISSLQSEDFAVYYCQQDYTSPWTFGQGTKLEIKR
notes: Native human IgG1/kappa; also called humanized SC16.56; humanized anti-DLL3 antibody hSC16.56
